Data: patent US10501493B2, “Broad spectrum antibiotics” (priority 2011, dated 2019)

Legend:
[1] = target: Full length His-tagged E. coli SPase (E. coli) (UniProt P00803); assay: fluorescence binding titration; compound conc. 1.E+02 (unit inferred)
[2] = target: Full length His-tagged E. coli SPase (E. coli) (UniProt P00803); assay: fluorescence binding titration; compound conc. 8.E+00 (unit inferred)
[3] = target: Full length His-tagged E. coli SPase (E. coli) (UniProt P00803); assay: fluorescence binding titration; compound conc. 6.E+01 (unit inferred)
[4] = target: Full length His-tagged E. coli SPase (E. coli) (UniProt P00803); assay: fluorescence binding titration; compound conc. 2.E+03 (unit inferred)
[5] = target: Full length His-tagged E. coli SPase (E. coli) (UniProt P00803); assay: fluorescence binding titration; compound conc. 1.E+03 (unit inferred)
[6] = target: Full length His-tagged S. aureus SPase (S. aureus) (UniProt P0A070); assay: fluorescence binding titration; compound conc. 250 (unit inferred)
[7] = target: Full length His-tagged S. aureus SPase (S. aureus) (UniProt P0A070); assay: fluorescence binding titration; compound conc. 62.5 (unit inferred)
[8] = target: Full length His-tagged S. aureus SPase (S. aureus) (UniProt P0A070); assay: fluorescence binding titration; compound conc. 15.625 (unit inferred)
[9] = target: Full length His-tagged S. aureus SPase (S. aureus) (UniProt P0A070); assay: fluorescence binding titration; compound conc. 2000 (unit inferred)
[10] = target: Full length His-tagged S. aureus SPase (S. aureus) (UniProt P0A070); assay: fluorescence binding titration; compound conc. 500 (unit inferred)
[11] = target: Full length His-tagged S. aureus SPase (S. aureus) (UniProt P0A070); assay: fluorescence binding titration; compound conc. 8000 (unit inferred)
[12] = target: Full length His-tagged E. coli SPase (E. coli) (UniProt P00803); assay: fluorescence binding titration; compound conc. 5.E+02 (unit inferred)
[13] = target: Full length His-tagged S. aureus SPase (S. aureus) (UniProt P0A070); assay: fluorescence binding titration; compound conc. 1000 (unit inferred)
[14] = target: Full length His-tagged E. coli SPase (E. coli) (UniProt P00803); assay: fluorescence binding titration; compound conc. 3.E+01 (unit inferred)
[15] = target: Full length His-tagged S. aureus SPase (S. aureus) (UniProt P0A070); assay: fluorescence binding titration; compound conc. 4000 (unit inferred)
[16] = target: Full length His-tagged E. coli SPase (E. coli) (UniProt P00803); assay: fluorescence binding titration; compound conc. 4.E+03 (unit inferred)
[17] = target: Full length His-tagged E. coli SPase (E. coli) (UniProt P00803); assay: fluorescence binding titration; compound conc. 0.E+00 (unit inferred)
[18] = target: Full length His-tagged S. aureus SPase (S. aureus) (UniProt P0A070); assay: fluorescence binding titration; compound conc. 31.25 (unit inferred)
[19] = target: Full length His-tagged E. coli SPase (E. coli) (UniProt P00803); assay: fluorescence binding titration; compound conc. 3.E+02 (unit inferred)
[20] = target: Full length His-tagged E. coli SPase (E. coli) (UniProt P00803); assay: fluorescence binding titration; compound conc. 2.E+01 (unit inferred)
[21] = target: Full length His-tagged S. aureus SPase (S. aureus) (UniProt P0A070); assay: fluorescence binding titration; compound conc. 125 (unit inferred)
[22] = target: T1, decanyol-LTPTAY^NO2 A ASKK^abzDD (SEQ ID NO: 2)
T1 chain: LTPTAYAASKKDD

[23] = target: T2, decanoyl-LSSPA Y^NO2 A ADK^abzPD (SEQ ID NO: 1)
T2 chain: LSSPAYAADKPD

Full length His-tagged E. coli SPase (E. coli), sequence (P00803 whole entry): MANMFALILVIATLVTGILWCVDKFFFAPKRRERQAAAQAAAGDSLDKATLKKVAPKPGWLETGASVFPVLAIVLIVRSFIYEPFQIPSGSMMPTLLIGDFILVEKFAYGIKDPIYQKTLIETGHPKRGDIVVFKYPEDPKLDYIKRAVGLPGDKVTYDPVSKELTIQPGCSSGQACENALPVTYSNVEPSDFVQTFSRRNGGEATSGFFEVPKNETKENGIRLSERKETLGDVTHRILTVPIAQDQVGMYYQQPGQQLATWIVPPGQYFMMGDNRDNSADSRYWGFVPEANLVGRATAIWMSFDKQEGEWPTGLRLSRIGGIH

Molecule: Compound 1 (arylomycin C16) (peptide)
- % Comp calc [1]: 71%
- % Comp obs [1]: 69%
- % Comp calc [2]: 9%
- % Comp obs [2]: 10%
- % Comp calc [3]: 51%
- % Comp obs [3]: 53%
- % Comp calc [4]: 98%
- % Comp obs [4]: 102%
- % Comp calc [5]: 96%
- % Comp obs [5]: 98%
- % Comp calc [6]: 25.4%
- % Comp obs [6]: 25.6%
- % Comp calc [7]: 7.4%
- % Comp obs [7]: 6.4%
- % Comp calc [8]: 1.9%
- % Comp obs [8]: 1.7%
- % Comp calc [9]: 77.1%
- % Comp obs [9]: 86.1%
- % Comp calc [10]: 42%
- % Comp obs [10]: 38.6%
- % Comp calc [11]: 93.6%
- % Comp obs [11]: 87.8%
- % Comp calc [12]: 92%
- % Comp obs [12]: 92%
- % Comp calc [13]: 61.1%
- % Comp obs [13]: 59.1%
- % Comp calc [14]: 31%
- % Comp obs [14]: 32%
- % Comp calc [15]: 87.6%
- % Comp obs [15]: 87.3%
- % Comp calc [16]: 99%
- % Comp obs [16]: 95%
- % Comp calc [17]: 0%
- % Comp obs [17]: -1%
- % Comp calc [18]: 3.8%
- % Comp obs [18]: 4.9%
- % Comp calc [19]: 85%
- % Comp obs [19]: 81%
- % Comp calc [20]: 17%
- % Comp obs [20]: 16%
- % Comp calc [21]: 14%
- % Comp obs [21]: 13.7%

B1: Full length His-tagged S. aureus SPase (protein)
chain: MKKELLEWIISIAVAFVILFIVGKFIVTSYTIKGESMDPTLKDGERVAVNIIGYKTGGLEKGNVVVFHANKNDDYVKRVIGVPGDKVEYKNDTLYVNGKKQDEPYLNYNLKHKQGDYITGTFQVKDLPNANPKSNVIPKGKYLVLGDNREVSKDSRAFGLIDEDQIVGKVSFRFWPFSEFKHNFNPENTKN
- second order rate constant (Kcat/KM) of substrate cleavage [22]: 10^5 M^-1s^-1
- second order rate constant (Kcat/KM) of substrate cleavage [23]: 10^5 M^-1s^-1
